Measured values reported in article PMC6066219 (PLoS ONE, 2018).
Marks after values point to notes of the source that are not given here. Starred links: 1 amine or outer side, 2 acyl side, 3 side chain; linkers in the order of their positions; H or OH if unused. Positions of bridges follow the written chain, without caps; N, C: chain ends. Non-standard residues stand in square brackets, D forms with d. Residues, ends and D or L forms follow the SMILES beside them. Chains are numbered I, II in the order given. *: point of attachment. X1 = CC1=CC(=O)N(O)CCCC(NC(=O)CCN2C(=O)CC([*:3])C2=O)C(=O)OCCC(C)=CC(=O)N(O)CCCC(NC(=O)CCN2C(=O)CC([*:2])C2=O)C(=O)OCCC(C)=CC(=O)N(O)CCCC(NC(=O)CCN2C(=O)CC([*:1])C2=O)C(=O)OCC1; X2 = CC(=O)NC1CCCN(O)C(=O)C=C(C)CCOC(=O)C(NC(=O)CCN2C(=O)CC([*:1])C2=O)CCCN(O)C(=O)C=C(C)CCOC(=O)C(NC(=O)CCN2C(=O)CC([*:2])C2=O)CCCN(O)C(=O)C=C(C)CCOC1=O; X3 = CC(=O)NC1CCCN(O)C(=O)C=C(C)CCOC(=O)C(NC(=O)CCN2C(=O)CC(*)C2=O)CCCN(O)C(=O)C=C(C)CCOC(=O)C(NC(C)=O)CCCN(O)C(=O)C=C(C)CCOC1=O; Nle = CCCC[C@H](N)C(=O)O; Mpa = O=C(O)CCS

Key:
[1] = tested on: A431-CCK2R/A431-mock tumour xenografted BALB/c nude mice; test: in vivo; settings: mouse
Procedure: (§1) Ex vivo biodistribution studies were conducted using female 8−10 weeks old athymic BALB/c nude mice (Charles River Laboratories, Sulzfeld, Germany). Tumour xenografts were induced by subcutaneous injection of 2 × 10^6 A431-CCK2R cells (receptor positive) in the right and 2 × 10^6 A431-mock cells (receptor negative) in the left flank and tumours were allowed to grow until they had reached a volume of 0.3–0.6 cm^3.To evaluate the biodistribution profile double tumour xenografted BALB/c nude mice (n = 3) were intravenously injected with 1–2 MBq of ^68Ga-labelled peptides (0.1–0.2 nmol). The animals were sacrificed by cervical dislocation after 1 h and 4 h in case of the trimer. The collected samples were measured in the gamma counter and the results were calculated as percentage of injected activity per gram tissue (% IA/g).

in vivo = test: in vivo; parameters: species or system BALB/c nude mice; settings: female, BALB/c nude, mouse, iv, total radioactivity
Procedure: as §1

[2] = format: physicochemical; settings: for logD: pH 7.4
Procedure: To determine the distribution of the ^68Ga-radiolabelled conjugates between an organic and aqueous layer aliquots (50 μL) of the tracers (10 μM) were diluted in 450 μL PBS and after adding 500 μL octanol the mixture was vortexed at 1400 rpm (MS 3 basic vortexer, IKA, Staufen, Germany) for 15 min at RT followed by centrifugation for 2 min at 4500 rpm. Subsequently, aliquots (100 μL) of both layers were collected and measured in the gamma counter (Wizard2 3”, Perkin Elmer, Waltham, MA, USA) followed by logD calculation using Excel (n = 3, six replicates).

CCK2 receptor = biological target: T1, CCK2 receptor (Homo sapiens, UniProt P32239); test: Receptor binding affinity studies (IC50) on whole A431-CCK2R cells vs 125I-[Leu15]-gastrin I; settings: natGa-labelled competitor, 125I-[Leu15]-Gastrin radioligand
T1 construct: expressed in transfected cells; host or cells: A431 human epidermoid carcinoma cells (A431-CCK2R), gift from Dr. L. Aloj
T1 sequence (P32239 1-447): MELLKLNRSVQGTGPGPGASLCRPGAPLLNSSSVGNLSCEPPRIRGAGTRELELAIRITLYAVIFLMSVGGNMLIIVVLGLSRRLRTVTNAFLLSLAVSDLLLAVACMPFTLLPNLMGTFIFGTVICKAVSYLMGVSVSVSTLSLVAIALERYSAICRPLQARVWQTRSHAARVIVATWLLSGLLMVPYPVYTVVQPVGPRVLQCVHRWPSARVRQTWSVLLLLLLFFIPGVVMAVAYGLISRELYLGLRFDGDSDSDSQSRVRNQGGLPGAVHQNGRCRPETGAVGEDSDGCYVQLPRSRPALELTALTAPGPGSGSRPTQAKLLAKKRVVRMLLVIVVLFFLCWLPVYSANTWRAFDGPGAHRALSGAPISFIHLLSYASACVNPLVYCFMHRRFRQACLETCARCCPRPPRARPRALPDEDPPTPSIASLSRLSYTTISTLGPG
Procedure: Binding affinity studies on whole A431-CCK2R cells were performed as previously described. Briefly, 100 μL of cell suspension (5 × 10^6 cells/mL) was added to each well of a 96-well MultiScreen Filter Plate HTS (1 μm glass fiber filter, Merck Millipore, Darmstadt, Germany). Hereafter competitor solution was added with increasing concentrations [0.001−1.000 nM] and after 10 min at RT human [Leu^15]-gastrin I radiolabelled with iodine-125 as described in [16] was added (4.5 × 10^4 cpm) and the plate was maintained under shaking conditions (Compact shaker KS-15 control, 200/min) at ambient temperature. After 1 h each well was washed twice with 200 μL TRIS-buffered saline (pH 7.3), filters were collected and measured in the gamma counter followed by nonlinear curve fitting with Origin 6.1 software (Northampton, MA, USA) to calculate the IC50 values.

Row | SMILES | Ratio T/O tumour-to-A431-mock [1] | tissue uptake at 1 h (in vivo; A431-CCK2R tumour uptake) | tissue uptake at 1 h (in vivo; A431-mock tumour uptake) | tissue uptake at 1 h (in vivo; Blood uptake) | tissue uptake at 1 h (in vivo; Bone uptake) | tissue uptake at 1 h (in vivo; Heart uptake) | tissue uptake at 1 h (in vivo; Intestine uptake) | tissue uptake at 1 h (in vivo; Kidneys uptake) | tissue uptake at 1 h (in vivo; Liver uptake) | tissue uptake at 1 h (in vivo; Lung uptake) | tissue uptake at 1 h (in vivo; Muscle uptake) | tissue uptake at 1 h (in vivo; Pancreas uptake) | tissue to tissue ratio at 1 h (in vivo; Ratio T/O tumour-to-Blood) | tissue to tissue ratio at 1 h (in vivo; Ratio T/O tumour-to-Bone) | tissue to tissue ratio at 1 h (in vivo; Ratio T/O tumour-to-Heart) | tissue to tissue ratio at 1 h (in vivo; Ratio T/O tumour-to-Intestine) | tissue to tissue ratio at 1 h (in vivo; Ratio T/O tumour-to-Kidneys) | tissue to tissue ratio at 1 h (in vivo; Ratio T/O tumour-to-Liver) | tissue to tissue ratio at 1 h (in vivo; Ratio T/O tumour-to-Lung) | tissue to tissue ratio at 1 h (in vivo; Ratio T/O tumour-to-Muscle) | also measured
1 | CCCC[C@H](NC(=O)[C@H](Cc1c[nH]c2ccccc12)NC(=O)CNC(=O)[C@H](Cc1ccc(O)cc1)NC(=O)[C@H](C)NC(=O)[C@@H](CCC(=O)O)NC(=O)CCSC1CC(=O)N(CCC(=O)NC2CCCN(O)C(=O)C=C(C)CCOC(=O)C(NC(C)=O)CCCN(O)C(=O)C=C(C)CCOC(=O)C(NC(C)=O)CCCN(O)C(=O)C=C(C)CCOC2=O)C1=O)C(=O)N[C@@H](CC(=O)O)C(=O)N[C@@H](Cc1ccccc1)C(N)=O (stereo partly drawn) [Monomer-Nle] ([Mpa](X3)[dE]AYGW[Nle]DF-NH2) | 9.8 ± 2.2^b | 1.97 ± 0.25 %ID/g | 0.22 ± 0.07 %ID/g | 0.25 ± 0.07 %ID/g | 0.3 ± 0.12 %ID/g | 0.12 ± 0.03 %ID/g | 0.36 ± 0.12 %ID/g | 2.72 ± 0.29 %ID/g | 0.17 ± 0.01 %ID/g | 0.25 ± 0.03 %ID/g | 0.1 ± 0.02 %ID/g | 0.24 ± 0.02 %ID/g | 9 ± 3.6 | 7.9 ± 3.1 | 17.6 ± 5.2 | 6.6 ± 3.6 | 0.75 ± 0.18 | 11.5 ± 2 | 8.1 ± 2.1 | 22.1 ± 6 | tissue to tissue ratio at 1 h (in vivo; Ratio T/O tumour-to-Pancreas): 8.4 ± 1.6; tissue to tissue ratio at 1 h (in vivo; Ratio T/O tumour-to-Spleen): 19.8 ± 4; tissue to tissue ratio at 1 h (in vivo; Ratio T/O tumour-to-Stomach): 3.1 ± 0.9; tissue uptake at 1 h (in vivo; Spleen uptake): 0.1 ± 0.03 %ID/g; tissue uptake at 1 h (in vivo; Stomach uptake): 0.66 ± 0.11 %ID/g; logD [2]: -2.69 ± 0.14
2 | CCCC[C@H](NC(=O)[C@H](Cc1c[nH]c2ccccc12)NC(=O)CNC(=O)[C@H](Cc1ccc(O)cc1)NC(=O)[C@H](C)NC(=O)[C@@H](CCC(=O)O)NC(=O)CCSC1CC(=O)N(CCC(=O)NC2CCCN(O)C(=O)C=C(C)CCOC(=O)C(NC(=O)CCN3C(=O)CC(SCCC(=O)N[C@H](CCC(=O)O)C(=O)N[C@@H](C)C(=O)N[C@@H](Cc4ccc(O)cc4)C(=O)NCC(=O)N[C@@H](Cc4c[nH]c5ccccc45)C(=O)N[C@@H](CCCC)C(=O)N[C@@H](CC(=O)O)C(=O)N[C@@H](Cc4ccccc4)C(N)=O)C3=O)CCCN(O)C(=O)C=C(C)CCOC(=O)C(NC(=O)CCN3C(=O)CC(SCCC(=O)N[C@H](CCC(=O)O)C(=O)N[C@@H](C)C(=O)N[C@@H](Cc4ccc(O)cc4)C(=O)NCC(=O)N[C@@H](Cc4c[nH]c5ccccc45)C(=O)N[C@@H](CCCC)C(=O)N[C@@H](CC(=O)O)C(=O)N[C@@H](Cc4ccccc4)C(N)=O)C3=O)CCCN(O)C(=O)C=C(C)CCOC2=O)C1=O)C(=O)N[C@@H](CC(=O)O)C(=O)N[C@@H](Cc1ccccc1)C(N)=O (stereo partly drawn) [Trimer-Nle] (I: [Mpa][dE]AYGW[Nle]DF-NH2 / II: [Mpa][dE]AYGW[Nle]DF-NH2 / III: [Mpa][dE]AYGW[Nle]DF-NH2; linker I:1-II:1-III:1 via X1) |  |  |  |  |  |  |  |  |  |  |  |  |  |  |  |  |  |  |  |  | IC50 (CCK2 receptor): 20.9 ± 1.13 nM; Distribution coefficient logD (pH 7.4) [2]: -1.80 ± 0.16
3 | CCCC[C@H](NC(=O)[C@H](Cc1c[nH]c2ccccc12)NC(=O)CNC(=O)[C@H](Cc1ccc(O)cc1)NC(=O)[C@H](C)NC(=O)[C@@H](CCC(=O)O)NC(=O)CCSC1CC(=O)N(CCC(=O)NC2CCCN(O)C(=O)C=C(C)CCOC(=O)C(NC(=O)CCN3C(=O)CC(SCCC(=O)N[C@H](CCC(=O)O)C(=O)N[C@@H](C)C(=O)N[C@@H](Cc4ccc(O)cc4)C(=O)NCC(=O)N[C@@H](Cc4c[nH]c5ccccc45)C(=O)N[C@@H](CCCC)C(=O)N[C@@H](CC(=O)O)C(=O)N[C@@H](Cc4ccccc4)C(N)=O)C3=O)CCCN(O)C(=O)C=C(C)CCOC(=O)C(NC(C)=O)CCCN(O)C(=O)C=C(C)CCOC2=O)C1=O)C(=O)N[C@@H](CC(=O)O)C(=O)N[C@@H](Cc1ccccc1)C(N)=O (stereo partly drawn) [Dimer-Nle] (I: [Mpa][dE]AYGW[Nle]DF-NH2 / II: [Mpa][dE]AYGW[Nle]DF-NH2; linker I:1-II:1 via X2) | 8.0 ± 1.8^c | 5 ± 0.79 %ID/g | 0.65 ± 0.14 %ID/g | 1.4 ± 0.48 %ID/g | 0.8 ± 0.37 %ID/g | 0.62 ± 0.12 %ID/g | 0.64 ± 0.12 %ID/g | 12.8 ± 0.16 %ID/g | 3.49 ± 0.94 %ID/g | 1.54 ± 0.33 %ID/g | 0.36 ± 0.12 %ID/g | 0.98 ± 0.28 %ID/g | 4 ± 1.3 | 7.6 ± 3.2 | 8.2 ± 1.2 | 8.1 ± 1.8 | 0.39 ± 0.06 | 1.5 ± 0.4 | 3.3 ± 0.5 | 15.8 ± 5.8 | tissue to tissue ratio at 1 h (in vivo; Ratio T/O tumour-to-Pancreas): 5.4 ± 1.3; tissue to tissue ratio at 1 h (in vivo; Ratio T/O tumour-to-Spleen): 5.2 ± 0.5; tissue to tissue ratio at 1 h (in vivo; Ratio T/O tumour-to-Stomach): 2.2 ± 0.3; tissue uptake at 1 h (in vivo; Spleen uptake): 0.95 ± 0.07 %ID/g; tissue uptake at 1 h (in vivo; Stomach uptake): 2.25 ± 0.17 %ID/g; logD [2]: -2.05 ± 0.19
